# Test results from publication PMC5122344, “Nuclear delivery of recombinant OCT4 by chitosan nanoparticles for transgene-free generation of protein-induced pluripotent stem cells”.
# B1: unlabeled octamer oligonucleotide (dsDNA)
# DNA 1: GCCGAATTTGCATATTTGCATGGCTG
# DNA 2: CAGCCATGCAAATATGCAAATTCGGC
# B2: octamer oligonucleotide (Ig heavy chain enhancer) (dsDNA)
# DNA 1: GCCGAATTTGCATATTTGCATGGCTG
# DNA 2: CAGCCATGCAAATATGCAAATTCGGC
# Legend:
# GST-OCT4 [1] = target: T1, GST-OCT4 (human, UniProt Q01860 1-360); assay: competition; 50-fold excess unlabeled oligonucleotide abolishes complex; LI-COR Odyssey EMSA kit 1x binding buffer (composition and pH not given), 2.5 mM DTT, 0.25% Tween-20, 1 ug poly(dI-dC) in 20 ul, 20 min at RT; 4% native PAGE in 0.5x TBE; settings: protein: recombinant; tags: GST (N-terminal, pAcG2T); label: none; (only one strand printed)
# GST-OCT4 [2] = target: T1, GST-OCT4; assay: EMSA; soluble OCT4, 30 ng per lane; LI-COR Odyssey EMSA kit 1x binding buffer (composition and pH not given), 2.5 mM DTT, 0.25% Tween-20, 1 ug poly(dI-dC) in 20 ul, 20 min at RT; 4% native PAGE in 0.5x TBE; settings: protein: recombinant; tags: GST (N-terminal, pAcG2T); label: IRDye 700; (only one strand printed)
# T1 sequence (Q01860 whole entry): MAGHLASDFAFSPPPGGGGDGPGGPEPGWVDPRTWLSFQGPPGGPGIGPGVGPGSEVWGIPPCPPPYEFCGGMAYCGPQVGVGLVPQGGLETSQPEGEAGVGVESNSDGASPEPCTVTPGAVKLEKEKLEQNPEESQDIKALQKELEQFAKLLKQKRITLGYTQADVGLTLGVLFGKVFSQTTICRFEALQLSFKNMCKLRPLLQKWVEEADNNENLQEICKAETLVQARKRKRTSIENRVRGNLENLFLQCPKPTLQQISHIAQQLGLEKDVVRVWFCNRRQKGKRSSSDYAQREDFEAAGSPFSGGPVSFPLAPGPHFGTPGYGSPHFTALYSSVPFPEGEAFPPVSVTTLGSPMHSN
Binder,binding result (GST-OCT4 [1]),binding result (GST-OCT4 [2])
B1,binds,
B2,,binds
